Laboratory results: PMC9482650, “Quantitative fragmentomics allow affinity mapping of interactomes” (Nature Communications, 2022)
One block for each binder: values may come before it.

Key:
Assay in all cases: holdup assay
Design in all cases: key: below the threshold = too weak to quantify, mostly under pKd 3.1 to 4
[1] = molecular target: GRID2IP_1, A4D2P6
[2] = molecular target: DLG1_3, Q12959
[3] = molecular target: T1, APBA2_2, Q99767
T1 sequence (Q99767 654-744, limits assumed, looked up): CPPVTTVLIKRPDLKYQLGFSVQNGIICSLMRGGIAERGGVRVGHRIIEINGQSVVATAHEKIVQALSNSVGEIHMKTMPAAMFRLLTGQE

[4] = molecular target: NOS1, P29475
NOS1, P29475, sequence (P29475 9-101): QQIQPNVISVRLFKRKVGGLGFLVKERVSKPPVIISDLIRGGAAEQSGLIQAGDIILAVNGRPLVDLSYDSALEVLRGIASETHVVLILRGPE

[5] = molecular target: GIPC2, Q8TF65
GIPC2, Q8TF65, sequence (Q8TF65 112-203): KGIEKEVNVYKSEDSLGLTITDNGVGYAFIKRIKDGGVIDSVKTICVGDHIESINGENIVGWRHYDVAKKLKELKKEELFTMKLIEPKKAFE

[6] = molecular target: T2, APBA2_1, Q99767
T2 sequence (Q99767 563-664, limits assumed, looked up): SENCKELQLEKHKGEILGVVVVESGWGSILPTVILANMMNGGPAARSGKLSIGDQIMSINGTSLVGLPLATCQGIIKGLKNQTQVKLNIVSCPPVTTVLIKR

[7] = molecular target: IL16_4, Q14005
IL16_4, Q14005, sequence (Q14005 1229-1329): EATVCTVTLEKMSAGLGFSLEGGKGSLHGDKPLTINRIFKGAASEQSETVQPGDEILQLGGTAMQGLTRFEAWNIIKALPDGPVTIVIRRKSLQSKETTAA

[8] = molecular target: DLG4_1, P78352
DLG4_1, P78352, sequence (P78352 62-152): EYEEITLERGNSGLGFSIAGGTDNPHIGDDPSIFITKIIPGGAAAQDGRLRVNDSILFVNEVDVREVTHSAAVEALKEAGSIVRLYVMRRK

[9] = molecular target: T3, SNTB1, Q13884
T3 sequence (Q13884 107-205, limits assumed, looked up): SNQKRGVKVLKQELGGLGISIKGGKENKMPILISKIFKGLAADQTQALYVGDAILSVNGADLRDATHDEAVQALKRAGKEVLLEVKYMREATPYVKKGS

[10] = molecular target: T4, MPP2, Q14168
T4 sequence (Q14168 180-250, limits assumed, looked up): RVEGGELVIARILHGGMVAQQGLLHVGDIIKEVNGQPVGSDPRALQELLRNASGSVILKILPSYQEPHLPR

[11] = molecular target: T5, GRIP1_7, Q9Y3R0
T5 sequence (Q9Y3R0 999-1096, limits assumed, looked up): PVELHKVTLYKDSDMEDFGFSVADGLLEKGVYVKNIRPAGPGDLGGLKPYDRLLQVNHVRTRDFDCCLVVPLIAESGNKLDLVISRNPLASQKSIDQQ

[12] = molecular target: T6, GRIP1_3, Q9Y3R0
T6 sequence (Q9Y3R0 247-346, limits assumed, looked up): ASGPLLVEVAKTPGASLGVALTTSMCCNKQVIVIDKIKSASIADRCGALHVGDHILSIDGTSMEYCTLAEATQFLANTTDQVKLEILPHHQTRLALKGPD

[13] = molecular target: T7, DLG3_3, Q92796
T7 sequence (Q92796 374-475, limits assumed, looked up): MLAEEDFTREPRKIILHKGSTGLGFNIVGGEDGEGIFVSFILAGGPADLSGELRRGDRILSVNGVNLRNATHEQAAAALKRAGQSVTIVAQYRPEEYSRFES

[14] = molecular target: MAST2, Q6P0Q8
MAST2, Q6P0Q8, sequence (Q6P0Q8 1099-1202): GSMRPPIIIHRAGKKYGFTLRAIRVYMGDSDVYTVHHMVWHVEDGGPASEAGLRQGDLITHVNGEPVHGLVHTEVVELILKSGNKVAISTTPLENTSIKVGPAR

[15] = molecular target: GORASP2, Q9H8Y8
[16] = molecular target: LNX1_3, Q8TBB1
LNX1_3, Q8TBB1, sequence (Q8TBB1 500-596): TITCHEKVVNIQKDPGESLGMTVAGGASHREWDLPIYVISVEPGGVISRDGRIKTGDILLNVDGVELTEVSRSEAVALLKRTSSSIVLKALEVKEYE

[17] = molecular target: CASK, O14936
CASK, O14936, sequence (O14936 487-570): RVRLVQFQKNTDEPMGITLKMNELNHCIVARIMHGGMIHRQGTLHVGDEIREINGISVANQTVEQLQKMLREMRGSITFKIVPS

[18] = molecular target: T8, ARHGEF11, O15085
T8 sequence (O15085 42-136, limits assumed, looked up): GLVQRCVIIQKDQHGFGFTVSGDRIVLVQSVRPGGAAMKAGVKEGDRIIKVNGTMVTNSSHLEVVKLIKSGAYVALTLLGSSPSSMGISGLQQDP

[19] = molecular target: T9, MPP6, Q9NZW5
T9 sequence (Q9NZW5 125-219, limits assumed, looked up): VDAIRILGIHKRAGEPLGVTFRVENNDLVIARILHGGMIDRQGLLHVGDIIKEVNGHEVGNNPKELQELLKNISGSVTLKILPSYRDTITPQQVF

[20] = molecular target: T10, GRIP1_2, Q9Y3R0
T10 sequence (Q9Y3R0 145-248, limits assumed, looked up): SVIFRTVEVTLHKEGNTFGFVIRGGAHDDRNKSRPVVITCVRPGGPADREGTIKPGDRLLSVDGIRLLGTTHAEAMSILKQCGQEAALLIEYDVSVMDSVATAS

[21] = molecular target: T11, LNX2_3, Q8N448
T11 sequence (Q8N448 463-564, limits assumed, looked up): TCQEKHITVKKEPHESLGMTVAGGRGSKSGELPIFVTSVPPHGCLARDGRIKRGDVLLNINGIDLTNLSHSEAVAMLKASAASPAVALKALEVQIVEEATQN

[22] = molecular target: T12, DFNB31_1, Q9P202
T12 sequence (Q9P202 135-233, limits assumed, looked up): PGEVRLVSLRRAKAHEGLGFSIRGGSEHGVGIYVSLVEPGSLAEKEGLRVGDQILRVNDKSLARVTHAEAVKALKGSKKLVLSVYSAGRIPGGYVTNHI

[23] = molecular target: TJP1_3, Q07157
TJP1_3, Q07157, sequence (Q07157 416-512): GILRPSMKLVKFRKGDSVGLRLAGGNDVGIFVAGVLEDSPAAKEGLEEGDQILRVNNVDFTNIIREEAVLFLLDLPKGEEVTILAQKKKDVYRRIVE

[24] = molecular target: T13, NHERF3_4, Q5T2W1
T13 sequence (Q5T2W1 373-468, limits assumed, looked up): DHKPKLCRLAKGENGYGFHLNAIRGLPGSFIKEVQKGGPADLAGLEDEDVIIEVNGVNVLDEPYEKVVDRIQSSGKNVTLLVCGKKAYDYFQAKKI

[25] = plain residues with an end cap or a label only (N-terminal biotin on a linker: ado-ado)
[26] = plain residues with an end cap or a label only (N-terminal biotin on a linker: ahx)

GRID2IP_1, A4D2P6, sequence (A4D2P6 1-87): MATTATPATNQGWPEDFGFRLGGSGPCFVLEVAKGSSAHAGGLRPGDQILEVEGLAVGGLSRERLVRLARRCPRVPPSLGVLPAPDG
DLG1_3, Q12959, sequence (Q12959 457-571): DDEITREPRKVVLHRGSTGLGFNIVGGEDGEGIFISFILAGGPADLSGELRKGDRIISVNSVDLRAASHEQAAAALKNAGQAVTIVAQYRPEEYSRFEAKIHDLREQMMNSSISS

pKd [1, 25]: below the threshold | pKd [2, 25]: 3.57 | pKd [3, 25]: below the threshold | pKd [4, 25]: below the threshold | pKd [5, 25]: below the threshold | pKd [6, 25]: below the threshold | pKd [7, 25]: below the threshold | pKd [8, 25]: below the threshold | pKd [9, 25]: below the threshold | pKd [10, 25]: below the threshold | pKd [11, 25]: below the threshold | pKd [12, 25]: below the threshold | pKd [13, 25]: below the threshold | pKd [14, 25]: 4.61 | pKd [15, 25]: 4.21 | pKd [16, 25]: below the threshold | pKd [17, 25]: below the threshold | pKd [18, 25]: below the threshold | pKd [19, 25]: below the threshold | pKd [20, 25]: below the threshold | pKd [21, 25]: below the threshold | pKd [22, 25]: below the threshold | pKd [23, 25]: below the threshold | pKd [24, 25]: below the threshold
B5: KCNV1, Q6PIU1 (peptide)
chain: RSSGGDDFWF

pKd [1, 25]: below the threshold | pKd [2, 25]: below the threshold | pKd [3, 25]: below the threshold | pKd [4, 25]: 3.66 | pKd [5, 25]: below the threshold | pKd [6, 25]: below the threshold | pKd [7, 25]: 3.6 | pKd [8, 25]: 4.07 | pKd [9, 25]: 4.37 | pKd [10, 25]: below the threshold | pKd [11, 25]: below the threshold | pKd [12, 25]: below the threshold | pKd [13, 25]: below the threshold | pKd [14, 25]: 5.62 | pKd [15, 25]: 4.11 | pKd [16, 25]: 3.68 | pKd [17, 25]: below the threshold | pKd [18, 25]: 4.38 | pKd [19, 25]: below the threshold | pKd [20, 25]: below the threshold | pKd [21, 25]: below the threshold | pKd [22, 25]: 4.17 | pKd [23, 25]: below the threshold | pKd [24, 25]: below the threshold
B6: PTPN18, Q99952 (peptide)
chain: RDPPAEWTRV

The next lines start with the binder.

B1: EPHA6, Q9UF33 (peptide)
chain: MHIQEKGFHV
pKd [1, 25]: below the threshold | pKd [2, 25]: below the threshold | pKd [3, 25]: below the threshold | pKd [4, 25]: 3.62 | pKd [5, 25]: below the threshold | pKd [6, 25]: below the threshold | pKd [7, 25]: 3.55 | pKd [8, 25]: below the threshold | pKd [9, 25]: below the threshold | pKd [10, 25]: below the threshold | pKd [11, 25]: below the threshold | pKd [12, 25]: below the threshold | pKd [13, 25]: below the threshold | pKd [14, 25]: below the threshold | pKd [15, 25]: 3.62 | pKd [16, 25]: below the threshold | pKd [17, 25]: below the threshold | pKd [18, 25]: below the threshold | pKd [19, 25]: below the threshold | pKd [20, 25]: below the threshold | pKd [21, 25]: below the threshold | pKd [22, 25]: below the threshold | pKd [23, 25]: below the threshold | pKd [24, 25]: below the threshold

B2: FOXI1, Q12951 (peptide)
chain: VLYPREGTEV
pKd [1, 25]: below the threshold | pKd [2, 25]: 3.75 | pKd [3, 25]: below the threshold | pKd [4, 25]: 4.05 | pKd [5, 25]: 3.49 | pKd [6, 25]: below the threshold | pKd [7, 25]: below the threshold | pKd [8, 25]: 4.48 | pKd [9, 25]: 3.97 | pKd [10, 25]: below the threshold | pKd [11, 25]: below the threshold | pKd [12, 25]: below the threshold | pKd [13, 25]: 3.8 | pKd [14, 25]: 5.27 | pKd [15, 25]: below the threshold | pKd [16, 25]: below the threshold | pKd [17, 25]: below the threshold | pKd [18, 25]: 4.54 | pKd [19, 25]: below the threshold | pKd [20, 25]: below the threshold | pKd [21, 25]: below the threshold | pKd [22, 25]: 3.8 | pKd [23, 25]: below the threshold | pKd [24, 25]: below the threshold

B3: CLDN3, O15551 (peptide)
chain: GTGYDRKDYV
pKd [1, 25]: below the threshold | pKd [2, 25]: 3.67 | pKd [3, 25]: below the threshold | pKd [4, 25]: 4.45 | pKd [5, 25]: below the threshold | pKd [6, 25]: below the threshold | pKd [7, 25]: 3.73 | pKd [8, 25]: below the threshold | pKd [9, 25]: below the threshold | pKd [10, 25]: below the threshold | pKd [11, 25]: below the threshold | pKd [12, 25]: below the threshold | pKd [13, 25]: 3.64 | pKd [14, 25]: below the threshold | pKd [15, 25]: 3.57 | pKd [16, 25]: 3.49 | pKd [17, 25]: below the threshold | pKd [18, 25]: 3.9 | pKd [19, 25]: below the threshold | pKd [20, 25]: below the threshold | pKd [21, 25]: below the threshold | pKd [22, 25]: below the threshold | pKd [23, 25]: 3.54 | pKd [24, 25]: below the threshold

B4: CACYBP, Q9HB71 (peptide)
chain: EKQAKGDTEF
pKd [1, 26]: below the threshold | pKd [2, 26]: below the threshold | pKd [3, 26]: below the threshold | pKd [4, 26]: below the threshold | pKd [5, 26]: below the threshold | pKd [6, 26]: below the threshold | pKd [7, 26]: below the threshold | pKd [8, 26]: below the threshold | pKd [9, 26]: below the threshold | pKd [10, 26]: below the threshold | pKd [11, 26]: below the threshold | pKd [12, 26]: below the threshold | pKd [13, 26]: below the threshold | pKd [14, 26]: below the threshold | pKd [15, 26]: below the threshold | pKd [16, 26]: below the threshold | pKd [17, 26]: below the threshold | pKd [18, 26]: below the threshold | pKd [19, 26]: below the threshold | pKd [20, 26]: below the threshold | pKd [21, 26]: below the threshold | pKd [22, 26]: below the threshold | pKd [23, 26]: below the threshold | pKd [24, 26]: below the threshold
